In article PMC11094138, “The NTE domain of PTENα/β promotes cancer progression by interacting with WDR5 via its SSSRRSS motif” (Cell Death & Disease, 2024):

Tests used:
WDR5^22–334 [1] = target: T1, WDR5^22–334 (human, UniProt P61964 22-334); test: ITC; competitive: PTENα-NTE^116–148 or PTENα-NTE^1–173 titrated into a 1:1 molar mixture of WDR5^22–334 and H3 1–15; 25 °C; 20 mM Tris-HCl pH 7.5, 150 mM NaCl; conditions: both partners purified
WDR5^22–334 [2] = target: T1, WDR5^22–334; test: ITC; WDR5 (50 µM) in the cell, peptide or protein (750 µM) in the syringe, 20 injections; 25 °C; 20 mM Tris-HCl pH 7.5, 150 mM NaCl; single-site model; iTC-200; conditions: both partners purified

Kd against a 1:1 mixture of WDR5^22–334 and H3 1–15 (WDR5^22–334 [1]) [µM] | Kd (WDR5^22–334 [2]) [µM] | binding result (WDR5^22–334 [2]) | Binder
32 ± 3 | 3.8 | – | SSRRSSHYPAAVQSQAAAERGASATAKSRAISI (PTENα (PTEN-L), the N-terminally extended variant of human PTEN (576 residues); residues 116–148 of its N-terminal extension; also called synthetic PTENα-NTE^116–148 peptide; source: synthetic peptide) [PTENα-NTE^116–148 peptide]
– | – | binds | GSARAEVHLRK (source: lyophilized peptide (Shanghai Apeptide or GL Biochem)) [MLL1 WIN motif MLL1^3762–3772]
– | – | binds | GSRRAEVHLRK (source: lyophilized peptide (Shanghai Apeptide or GL Biochem)) [MLL1^3762–3772_A3764R]
